Columns and labels:
[1] = target: human CD47-IgV-Domain-hIg fusion protein (human), Q08722; test: flow cytometry on cells; competition: CD47-IgV-Domain-hIg (20 nM) incubated with titrating concentrations of peptide in PBS pH 7.4 for 1 hour at 4°C, then on SIRPα-overexpressing CHO cells 30 min at 4°C; PE-conjugated goat anti-human IgG; IC50 from sigmoidal dose response curves
[2] = target: T1, mouse CD47-IgV-Domain-hIg fusion protein (mouse), Q61735; test: as above
T1 chain: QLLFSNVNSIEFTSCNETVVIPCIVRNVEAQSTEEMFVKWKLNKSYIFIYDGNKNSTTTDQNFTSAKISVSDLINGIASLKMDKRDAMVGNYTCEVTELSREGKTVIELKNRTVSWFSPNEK

[3] = target: human CD47-IgV-Domain protein (human), Q08722; test: MST; human or mouse CD47-IgV-Domain protein labeled with NT-647, about 50 to 200 nM; unlabeled peptides or ligand protein diluted serially; 50 mM Tris, 150 mM NaCl, 10 mM MgCl2, 0.05% Tween-20, 0.5% DMSO, pH 7.5; 30 min at room temperature; 25°C
[4] = target: T2, mouse CD47-IgV-Domain protein (mouse), Q61735; test: as above
T2 chain: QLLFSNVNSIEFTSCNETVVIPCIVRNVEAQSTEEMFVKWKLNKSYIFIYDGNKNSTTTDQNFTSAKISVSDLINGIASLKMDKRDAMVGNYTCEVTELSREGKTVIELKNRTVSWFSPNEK

Sequence of human CD47-IgV-Domain protein (human), Q08722 (Q08722 19-141): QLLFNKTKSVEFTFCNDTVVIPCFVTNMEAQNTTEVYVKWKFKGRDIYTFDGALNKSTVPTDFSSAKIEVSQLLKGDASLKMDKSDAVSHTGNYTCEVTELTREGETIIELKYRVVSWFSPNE
Sequence of human CD47-IgV-Domain-hIg fusion protein (human), Q08722 (Q08722 19-141): as above

Binder AWSATWSNYWRH (modifications not checked) [pep-20] has an IC50 [1] of 24.6 µM, an IC50 [2] of 12 µM and a Kd [3] of 2.91 µM. For the same binder, the Kd [4] was 3.63 µM.
